Experimental data as given in patent US20220153839A1 (NBE THERAPEUTICS, published 2022).
Substitutions are numbered along the chain they refer to. One block for each binder: values may come before it.

Key:
[1] = biological target: T1, hFc-mROR1 (extracellular domain of mouse ROR1 fused to the Fc domain of human IgG1) (human; mouse, UniProt Q9Z139 30-406); test: ELISA; hFc fusion captured by coated anti-human IgG1 Fc; anti-His-HRP; A405
T1 construct: extracellular domain; not shown: Fc domain of human IgG1
Protocol: (§1) The binding of each chimeric rabbit/human Fab to hROR1 and mROR1 fused with human IgG1 Fc (hFc-hROR1 and hFc-mROR1) was analyzed by ELISA. hFc-ROR1 or hFc-mROR1 were captured by anti-human IgG1 Fc antibody immobilized on plate and then incubated with hROR1 specific Fabs comprising a His-tag via detection with mouse anti-His tag.
(§2) ELISA: For ELISA (FIG. 2), each well of a 96-well Costar 3690 plate (Corning, Corning, N.Y.) was coated with 100 ng anti-human IgG1 Fc in 25 μL coating buffer (0.1 M Na₂CO₃, 0.1 M NaHCO₃, pH 9.6) for 1 h at 37° C. After blocking with 150 μL 3% (w/v) BSA/TBS for 1 h at 37° C., hFc-hROR1 or hFc-mROR1 was captured following incubation at 100 ng/50 μL for 1 h at 37° C. Then 100 ng/50 μL of Fab was applied in each well at 37° C. 2 h later, 50 μL of a 1:1000 dilution of a mouse anti-His tag mAb conjugated to horse radish peroxidase (HRP) (R&D Systems, Minneapolis, Minn.) in 1% (w/v) BSA/TBS was used to detect the Fab. To determine the epitopes (FIG. 4), hFc fusion proteins containing different domains of hROR1 were coated directly, followed by incubation with Fab before detection by mouse anti-His tag mAb conjugated to HRP. Washing with PBS was repeated and colorimetric detection was performed using 2,2′-azino-bis(3-ethylbenzthiazoline)-6-sulfonic acid (Roche) as substrate according to the manufacturer's directions. The absorbance was measured at 405 nm using a SpectraMax M5 microplate reader (Molecular Devices; Sunnyvale, Calif.) and SoftMax Pro software (Molecular Devices).

hROR2 = biological target: T2, hROR2 (human, UniProt Q01974); test: flow cytometry on 63-12 / hROR2 cells; anti-His Alexa Fluor 488
T2 construct: full length, on the cell surface; also called 63-12 / hROR2; ROR2 on T47D cells
Protocol: Flow cytometry: Cells were stained using standard flow cytometry methodology. Briefly, for purified anti-ROR1 Fab (FIG. 3), 0.1-1×10⁶ cells were stained with 1000 ng/100 μL of Fab on ice for 1 h. After washing twice with ice-cold flow cytometry buffer (PBS containing 1% (v/v) BSA, 0.1% sodium azide and 1 mM EDTA), the cells were incubated with a 1:1000 dilution of a mouse anti-His tag mAb conjugated to Alexa Fluor 488 (Qiagen) in 100 μL flow cytometry buffer on ice for 30 min. For purified anti-ROR1 IgG1 (FIG. 8), 0.1-1×10⁶ cells were blocked by 4% goat serum for 15 min at room temperature and then incubated with 100 ng/100 μL of IgG on ice for 1 h. After washing twice with ice-cold flow cytometry buffer, cells were stained with a 1:500 dilution of goat anti-human IgG, Fcγ pAbs conjugated to APC (Jackson ImmunoResearch) in 100 μL flow cytometry buffer on ice for 30 min. For commercial goat anti human ROR1 polyclonal antibody (FIG. 8), 0.1-1×10⁶ cells were stained with 200 ng/100 μL of Ab on ice for 1 h. […] Finally, 4′,6-diamidino-2-phenylindole (DAPI) was added to a final concentration of 100 ng/mL to exclude dead cells from the analysis. Cells were analyzed using a FACSCalibur instrument (BD Biosciences) and FlowJo analytical software (Tree Star, Ashland, Oreg.).

Kr = biological target: T3, Kr (human, UniProt Q01973); test: ELISA on directly coated hFc fusion proteins of hROR1 domains; anti-His-HRP; A405
T3 construct: Kringle domain of the extracellular domain; also called hFc-hROR1-Kr
Protocol: as §2

Fr + Ki = biological target: T4, Fr + Ki (human, UniProt Q01973); test: as above
T4 construct: Frizzled and Kringle domains of the extracellular domain; also called hFc-hROR1-Fr-Ki
Protocol: as §2

Ig = biological target: T5, Ig (human, UniProt Q01973); test: as above
T5 construct: Ig domain of the extracellular domain; also called hFc-hROR1-Ig
Protocol: as §2

Fr = biological target: T6, Fr; test: as above
T6 construct: also called hFc-hROR1-Fr
Protocol: as §2

[2] = biological target: T7, hFc-hROR1 (extracellular domain of human ROR1 fused to the Fc domain of human IgG1) (human, UniProt Q01973 30-406); test: SPR (Biacore X100); hFc-hROR1 captured by anti-human Fcγ antibody on CM5; Fab as analyte; 1:1 Langmuir fit
T7 construct: extracellular domain; also called hFc-ROR1; not shown: Fc domain of human IgG1
Protocol: (A) Shown are Biacore X100 sensorgrams obtained for the binding of each Fab to hFc-hROR1 captured by anti-human Fcγ antibody immobilized on CM5 chip after instantaneous background depletion. Fabs were injected at five different concentrations with the highest concentration indicated in table (B), one of the five concentrations was tested in duplicates. The equilibrium dissociation constant (Kd) was calculated from koff/kₒₙ (kₒₙ, association rate constant; koff, dissociation rate constant).
Surface plasmon resonance: Surface plasmon resonance for the measurement of the affinities of all Fabs to hFc-hROR1 and for epitope mapping studies were performed on a Biacore X100 instrument using Biacore reagents and software (GE Healthcare, Piscataway, N.J.). Anti-Human IgG (Fc) antibody was immobilized on a CM5 sensor chip following the instruction of Human Antibody Capture Kit (GE Healthcare, Piscataway, N.J.). The sensor chip included an empty flow cell for instantaneous background depletion. All binding assays used 1×HBS-EP+ running buffer (10 mM HEPES, 150 mM NaCl, 3 mM EDTA (pH 7.4), and 0.05% (v/v) Surfactant P20) and a flow rate of […]. […] The sensor chip was regenerated with […] from the Human Antibody Capture Kit without any loss of binding capacity. Calculation of association (kₒₙ) and dissociation (koff) rate constants was based on a 1:1 Langmuir binding model. The equilibrium dissociation constant (Kd) was calculated from koff/kₒₙ. For epitope mapping studies, each Fab was prepared at 500 nM alone in 1×HBS-EP+ running buffer and then injected in order as indicated in FIG. 5.

[3] = biological target: T8, hFc-hROR2 (extracellular domain of human ROR2 fused to the Fc domain of human IgG1) (human, UniProt Q01974 34-403); test: ELISA as for hFc-hROR1; third bar series, keyed 'hFc-hROR1' a second time on the sheet, taken as hFc-hROR2 by legend paragraph 27
T8 construct: extracellular domain; not shown: Fc domain of human IgG1
Protocol: as §1, §2

[4] = biological target: human ROR1, full length, on cells (human, UniProt Q01973 30-937); test: cell-based or functional assay
Chain of human ROR1, full length, on cells (Q01973 30-937): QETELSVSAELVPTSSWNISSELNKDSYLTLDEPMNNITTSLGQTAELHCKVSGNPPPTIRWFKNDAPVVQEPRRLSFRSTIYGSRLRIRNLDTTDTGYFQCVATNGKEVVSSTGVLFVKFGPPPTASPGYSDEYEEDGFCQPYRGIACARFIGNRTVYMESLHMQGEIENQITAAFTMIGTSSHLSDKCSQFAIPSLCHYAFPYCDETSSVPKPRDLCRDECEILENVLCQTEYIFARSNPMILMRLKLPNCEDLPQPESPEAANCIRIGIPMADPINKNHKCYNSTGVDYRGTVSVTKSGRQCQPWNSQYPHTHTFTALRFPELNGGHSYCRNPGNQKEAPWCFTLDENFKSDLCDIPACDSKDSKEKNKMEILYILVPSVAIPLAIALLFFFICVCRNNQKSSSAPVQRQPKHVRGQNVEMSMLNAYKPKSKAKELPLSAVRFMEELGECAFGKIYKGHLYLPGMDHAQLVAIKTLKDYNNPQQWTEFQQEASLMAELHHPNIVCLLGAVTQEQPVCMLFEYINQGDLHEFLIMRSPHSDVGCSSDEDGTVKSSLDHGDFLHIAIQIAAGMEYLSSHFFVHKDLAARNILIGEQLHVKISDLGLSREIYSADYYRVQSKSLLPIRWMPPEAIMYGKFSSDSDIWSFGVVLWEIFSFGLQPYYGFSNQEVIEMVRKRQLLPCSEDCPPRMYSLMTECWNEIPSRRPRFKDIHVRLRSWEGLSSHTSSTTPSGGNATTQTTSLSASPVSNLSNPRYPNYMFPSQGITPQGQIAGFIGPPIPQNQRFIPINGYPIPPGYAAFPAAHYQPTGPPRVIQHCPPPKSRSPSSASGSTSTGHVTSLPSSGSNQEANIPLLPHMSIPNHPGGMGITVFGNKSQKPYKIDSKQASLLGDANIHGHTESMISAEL

T2 sequence (Q01974 34-943 limits assumed): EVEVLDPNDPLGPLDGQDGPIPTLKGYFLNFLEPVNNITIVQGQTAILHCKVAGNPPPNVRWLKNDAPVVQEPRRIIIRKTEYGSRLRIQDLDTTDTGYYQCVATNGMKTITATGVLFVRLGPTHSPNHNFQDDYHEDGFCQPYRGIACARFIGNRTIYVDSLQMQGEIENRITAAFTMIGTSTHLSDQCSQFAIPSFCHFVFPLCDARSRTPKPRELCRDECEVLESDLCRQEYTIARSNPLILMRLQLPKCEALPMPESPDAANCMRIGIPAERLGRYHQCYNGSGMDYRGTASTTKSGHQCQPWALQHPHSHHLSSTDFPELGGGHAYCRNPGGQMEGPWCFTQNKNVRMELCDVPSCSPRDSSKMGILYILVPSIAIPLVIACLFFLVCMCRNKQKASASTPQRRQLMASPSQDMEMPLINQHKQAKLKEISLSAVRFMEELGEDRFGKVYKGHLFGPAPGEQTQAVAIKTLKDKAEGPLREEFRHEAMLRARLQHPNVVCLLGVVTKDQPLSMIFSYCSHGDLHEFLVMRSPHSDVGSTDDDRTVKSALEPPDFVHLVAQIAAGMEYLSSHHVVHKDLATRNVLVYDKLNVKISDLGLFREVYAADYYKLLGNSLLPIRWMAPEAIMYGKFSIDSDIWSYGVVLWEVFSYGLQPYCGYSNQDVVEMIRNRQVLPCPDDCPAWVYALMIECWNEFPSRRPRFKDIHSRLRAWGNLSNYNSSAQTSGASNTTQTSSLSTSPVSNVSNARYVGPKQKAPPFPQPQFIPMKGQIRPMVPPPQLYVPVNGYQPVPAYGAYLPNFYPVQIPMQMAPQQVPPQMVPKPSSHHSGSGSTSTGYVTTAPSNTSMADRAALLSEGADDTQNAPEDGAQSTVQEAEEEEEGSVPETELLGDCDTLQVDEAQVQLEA
T4 sequence (Q01973 165-391 limits assumed): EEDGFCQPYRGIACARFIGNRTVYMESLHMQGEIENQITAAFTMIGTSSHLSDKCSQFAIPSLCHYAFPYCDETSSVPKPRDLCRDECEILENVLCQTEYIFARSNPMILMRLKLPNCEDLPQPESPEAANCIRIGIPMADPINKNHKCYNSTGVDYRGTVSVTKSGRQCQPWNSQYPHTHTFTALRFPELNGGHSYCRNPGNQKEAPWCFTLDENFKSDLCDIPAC
T5 sequence (Q01973 42-147 limits assumed): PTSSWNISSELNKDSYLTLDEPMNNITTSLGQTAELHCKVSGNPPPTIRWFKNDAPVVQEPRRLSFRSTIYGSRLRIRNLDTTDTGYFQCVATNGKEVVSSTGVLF
T7 sequence (Q01973 30-406): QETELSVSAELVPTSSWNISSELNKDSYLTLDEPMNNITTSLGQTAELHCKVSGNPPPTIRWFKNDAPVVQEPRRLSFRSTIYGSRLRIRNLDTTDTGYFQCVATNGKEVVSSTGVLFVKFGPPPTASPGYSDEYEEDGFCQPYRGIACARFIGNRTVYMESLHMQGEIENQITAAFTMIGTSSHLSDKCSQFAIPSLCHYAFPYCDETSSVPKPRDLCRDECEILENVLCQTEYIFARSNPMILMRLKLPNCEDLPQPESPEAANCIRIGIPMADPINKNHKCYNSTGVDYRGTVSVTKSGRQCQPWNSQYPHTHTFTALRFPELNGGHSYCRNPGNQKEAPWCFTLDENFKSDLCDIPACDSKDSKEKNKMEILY
T6 sequence (chain, as listed by the source limits assumed): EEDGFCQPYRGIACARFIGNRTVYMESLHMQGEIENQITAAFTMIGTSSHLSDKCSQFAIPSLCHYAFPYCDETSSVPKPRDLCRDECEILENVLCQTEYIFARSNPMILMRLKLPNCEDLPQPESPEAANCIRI
T1 sequence (Q9Z139 30-406): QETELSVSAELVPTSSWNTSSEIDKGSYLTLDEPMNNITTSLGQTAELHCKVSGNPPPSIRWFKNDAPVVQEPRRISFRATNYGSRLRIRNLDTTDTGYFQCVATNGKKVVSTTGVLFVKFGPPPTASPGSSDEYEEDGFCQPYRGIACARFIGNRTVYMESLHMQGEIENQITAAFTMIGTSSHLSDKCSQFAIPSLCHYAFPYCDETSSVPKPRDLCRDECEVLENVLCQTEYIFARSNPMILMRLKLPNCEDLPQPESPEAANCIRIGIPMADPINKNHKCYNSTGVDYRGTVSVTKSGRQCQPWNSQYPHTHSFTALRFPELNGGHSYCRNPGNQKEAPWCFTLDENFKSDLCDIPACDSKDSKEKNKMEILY
T8 sequence (Q01974 34-403): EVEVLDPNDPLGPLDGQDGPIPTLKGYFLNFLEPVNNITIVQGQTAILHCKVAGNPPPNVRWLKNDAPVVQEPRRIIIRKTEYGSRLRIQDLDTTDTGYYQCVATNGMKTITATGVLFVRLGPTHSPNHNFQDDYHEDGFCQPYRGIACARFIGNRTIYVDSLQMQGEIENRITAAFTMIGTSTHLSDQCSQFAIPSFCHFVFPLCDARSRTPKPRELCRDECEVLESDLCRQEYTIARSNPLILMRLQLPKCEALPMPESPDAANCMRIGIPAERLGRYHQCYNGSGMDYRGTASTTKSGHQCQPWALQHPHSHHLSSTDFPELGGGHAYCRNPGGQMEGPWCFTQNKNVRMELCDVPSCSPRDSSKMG
T3 sequence (Q01973 312-391 limits assumed): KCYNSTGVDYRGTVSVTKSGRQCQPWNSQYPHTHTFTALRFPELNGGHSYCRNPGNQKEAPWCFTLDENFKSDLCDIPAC

B2: HuXBR1-402(3)-G5-PNU (Adc456) (other)
VH: QVQLRESGPGLVKPSETLSLTCTVSGFDISSYYMSWVRQPPGKGLEWIGAIGISGNAYYASWAKSRVTISRDTSKNQFSLKLSSVTAADTAVYYCARDHPTYGMDLWGPGTLVTVSS
VL: SYELTQPLSVSVALGQTARITCEGNNIGSKAVHWYQQKPGQAPVLVIYDDDERPSGIPERFSGSNSGNTATLTISRAQAGDEADYYCQVWDSSAYVFGGGTKLTVLG
modifications: Gly5-EDA-PNU joined by sortase to the C-terminal G5SLPETG tag of the full light chain; Gly5-EDA-PNU joined by sortase to the C-terminal LPETG tag of the full heavy chain
IC50 values on 697 cells (in vitro cell killing) [4]: 0.0981 µg/mL

B3: HuXBR1-402(15)-G5-PNU (Adc458) (other)
VH: B2 VH with R5Q
VL: B2 VL with L8P, L14P, Q16K, A77V, Q78E
modifications: Gly5-EDA-PNU joined by sortase to the C-terminal G5SLPETG tag of the full light chain; Gly5-EDA-PNU joined by sortase to the C-terminal LPETG tag of the full heavy chain
IC50 values on 697 cells (in vitro cell killing) [4]: 0.106 µg/mL

B4: HuXBR1-402(8)-G5-PNU (Adc457) (other)
VH: B2 VH with R5Q
VL: SYELTQPPSVSVSPGQTAIITCEGNNIGSKAVHWYQQKPGLSPVLVIYDDDERPSGIPERFSGSNSGNTATLTVSGTQDMDEADYYCQVWDSSAYVFGGGTKLTVLG
modifications: Gly5-EDA-PNU joined by sortase to the C-terminal G5SLPETG tag of the full light chain; Gly5-EDA-PNU joined by sortase to the C-terminal LPETG tag of the full heavy chain
IC50 values on 697 cells (in vitro cell killing) [4]: 0.164 µg/mL

B5: HuXBR1-402(17)-G5-PNU (Adc459) (other)
VH: B2 VH
VL: B2 VL with L8P, L14P, Q16K, A77V, Q78E
modifications: Gly5-EDA-PNU joined by sortase to the C-terminal G5SLPETG tag of the full light chain; Gly5-EDA-PNU joined by sortase to the C-terminal LPETG tag of the full heavy chain
IC50 values on 697 cells (in vitro cell killing) [4]: 0.0706 µg/mL

B6: ERR1-409 chimeric rabbit/human Fab (Fab, V domains shown)
VH: QEQLVESGGRLVTPGGSLTLTCTASGFSLSSYYMGWVRQAPGKGLEWIGTIYGGSGSTWYASWVKGRFTISKTSTAVDLKITSLTTEDTATYFCARSYPGWTTEPYFDIWGPGTLVTVSS
VL: QFVLTQPQSVSGSLGQTVSISCNRDSGNIEDYYVHWYQQHPGKAPTTVIYNDDQRPSGVPDRFSGSIDSTSNSASLTITGLLAEDEADYYCLSSDSSAYVFGGGTQLTVTG
notes: Chimeric rabbit/human Fab with His tag, expressed in E. coli (pET11a); lambda light chain
binding result [1]: no binding (tested: 100 ng/50 µL)
binding result (hROR2): no binding (tested: 1000 ng/100 µL)
binding result (Kr): no binding
binding result (Fr + Ki): no binding
binding result (Ig): no binding
binding result (Fr): no binding
Kd [2]: 281 nM
koff [2]: 0.0162 s⁻¹
kon [2]: 57500 M⁻¹ s⁻¹
binding result [3]: no binding (tested: 100 ng/50 µL)

B8: ERR1-403 chimeric rabbit/human Fab (Fab, V domains shown)
VH: QEQLKESGRGLVQPGGSLKLSCKASGFDFSGWYMTWVRQAPGKGLEWIGTIGTTKGRTYYASWVNGRFTISSNAQNTVDLQMNSLTAADRATYFCVRGSDYFDLWGPGTLVTISS
VL: SYELTQLPSVSVSLGQTARITCGGNSIGSKAVNWYQQKPGLAPGLLIYDDDERPSGVPARFSGSNSGDTATLTISGAQAGDEADYYCQLWDSSAGAYVFGGGTQLTVTG
notes: as for B6
binding result [1]: no binding (tested: 100 ng/50 µL)
binding result (hROR2): no binding (tested: 1000 ng/100 µL)
binding result (Kr): no binding
binding result (Fr + Ki): no binding
binding result (Ig): no binding
binding result (Fr): no binding
Kd [2]: 41.6 nM
koff [2]: 0.00128 s⁻¹
kon [2]: 30800 M⁻¹ s⁻¹
binding result [3]: no binding (tested: 100 ng/50 µL)

Other lines, results leading:

binding result [1]: no binding (tested: 100 ng/50 µL)
binding result (hROR2): no binding (tested: 1000 ng/100 µL)
binding result (Kr): no binding
binding result (Fr + Ki): no binding
binding result (Ig): no binding
binding result (Fr): no binding
Kd [2]: 240 nM
koff [2]: 0.0592 s⁻¹
kon [2]: 247000 M⁻¹ s⁻¹
binding result [3]: no binding (tested: 100 ng/50 µL)
B1: ERR1-TOP4 chimeric rabbit/human Fab (Fab, V domains shown)
VH: QSVEESGGRLVTPGTPLTLTCTASGIDLSRYAVNWVRQAPGKGLEWIGVISGSGTTYYASWAKGRFTISKTSTTVDLKITSPTTEDTATYFCARGWATDGIFDYDDTFNLWGPGTLVTVSS
VL: SYELTQLPSVSVSLGQTARITCGGDSIESKAVHWYQQKPGLAPGLLVYNDDERPSGVPDRFSGSNSGDTATLTISGAQAGDEADYYCQLWDGSAYVFGGGTQLTVTG
notes: as for B6

binding result [1]: no binding (tested: 100 ng/50 µL)
binding result (hROR2): no binding (tested: 1000 ng/100 µL)
binding result (Kr): no binding
binding result (Fr + Ki): no binding
binding result (Ig): no binding
binding result (Fr): no binding
Kd [2]: 118 nM
koff [2]: 0.1 s⁻¹
kon [2]: 849000 M⁻¹ s⁻¹
binding result [3]: no binding (tested: 100 ng/50 µL)
B7: ERR1-301 chimeric rabbit/human Fab (Fab, V domains shown)
VH: QEQLEESGGGLVTPGGSLTLTCTASGFTISTYHMSWVRQAPGKGLEWIGSIYAGSGSTYYASWVNGRFTISSNTTQNTVSLQMNSLTVADTATYFCARDHPSYGMDLWGPGTLVTVSS
VL: B8 VL with A59D, G63A, G80E, G95V
notes: as for B6

binding result [1]: no binding (tested: 100 ng/50 µL)
binding result (hROR2): no binding (tested: 1000 ng/100 µL)
binding result (Kr): no binding
binding result (Fr + Ki): no binding
binding result (Ig): no binding
binding result (Fr): no binding
Kd [2]: 121 nM
koff [2]: 0.133 s⁻¹
kon [2]: 1.1e+06 M⁻¹ s⁻¹
binding result [3]: no binding (tested: 100 ng/50 µL)
B9: ERR1-316 chimeric rabbit/human Fab (Fab, V domains shown)
VH: QEQLEESGGRLVTPGTPLTLTCTASGFFLSSYYVSWVRQAPGKGLEWIGAIGTGGSAYYASWAKSRSTITRNTNLSTVTLKMTSLTAADTATYFCARDHPNYGMDLWGPGTLVTVSS
VL: B8 VL with A59D, A94T, V98A
notes: as for B6
